Source: PMC4137058 (The Journal of Cell Biology, 2014)
Numbering of substitutions follows the chain as printed. In names and notes the source's numbering stands.

Target: T1, GST-tagged Sac1 (residues 2-460) (Saccharomyces cerevisiae, UniProt P32368 2-460)
T1 sequence (looked up): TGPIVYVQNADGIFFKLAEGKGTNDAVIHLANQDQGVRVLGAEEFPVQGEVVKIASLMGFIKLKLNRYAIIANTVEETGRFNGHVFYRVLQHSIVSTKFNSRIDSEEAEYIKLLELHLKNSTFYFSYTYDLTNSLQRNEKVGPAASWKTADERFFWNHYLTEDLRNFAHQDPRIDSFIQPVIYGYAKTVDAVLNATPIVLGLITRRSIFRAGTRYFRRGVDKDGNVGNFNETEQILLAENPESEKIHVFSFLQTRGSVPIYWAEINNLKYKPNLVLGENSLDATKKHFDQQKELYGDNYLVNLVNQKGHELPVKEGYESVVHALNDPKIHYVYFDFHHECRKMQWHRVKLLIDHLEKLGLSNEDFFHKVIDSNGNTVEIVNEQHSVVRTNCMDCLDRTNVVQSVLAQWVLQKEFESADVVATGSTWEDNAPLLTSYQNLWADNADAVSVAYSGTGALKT
Test: pull-down

B1: Vps74 (residues 46-345) (domain or fragment, Saccharomyces cerevisiae, UniProt Q06385 46-345, looked up)
chain: NKKIAYDPEESKLRDNINIPTLTLMEEVLLMGLRDREGYLSFWNDSISYALRGCIIIELALRGKIRILDDSARKRFDLSERLIEVIDSSKTGEVLLDETLQLMKNDEPLSISNWIDLLSGETWNLLKINYQLKQVRERLAKGLVDKGVLRTEMKNFFLFDMATHPIADASCKEAIKRRVLSVLVSRNMELSYNEYFPETTSFKIIRTLALICGSYGANVLENVLTTLEYEKRDKAISRAEEIMAQFSQYPFDLEKETELGVSVNLNKEVKEEIENNPGHDLQLEVIAGVFEVFSRMDMLL
Question: Does B1 bind?
Answer: Result: binds

B2: Vps74 (Y260S, N263S, E266S, Y274S, and D278S) (domain or fragment, Saccharomyces cerevisiae, UniProt Q06385 46-345, looked up)
chain: B1 chain with Y215S, N218S, E221S, Y229S, D233S
Question: Does B2 bind?
Answer: Result: binds
